This sample holds only a part of the variants without activity.
B1: TPR 5TU (parent)
chain: GGAUCUUCUCGAUCUAACAAAAAAGACAAAUCUGCCACAAAGCUUGAGAGCAUCUUCGGAUGCAGAGGCGGCAGCCUUCGGUGGCGCGAUAGCGCCAACGUUCUCAACUAUGACACGCAAAACGCGUGCUCCGUUGAAUGGAGUUUAUCAUG

Variants of: B1
Test: polymerase ribozyme fitness, log enrichment relative to wild type (log ratio); higher = more active; in vitro selection for triplet polymerase activity
How it was run: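 Only genotypes with ≥10 input reads and ≥1 read per output were kept after Illumina sequencing of input and output libraries. These libraries were PCR-built, transcribed mutants of each subunit of a heterodimeric triplet polymerase ribozyme, each put through one triplicate in vitro selection round with frozen incubation at −7 °C, gel excision of extended constructs, streptavidin-bead capture and RT-PCR. Fitness is a logarithmic ratio of genotype enrichment to wild-type enrichment, from inverse-variance-weighted replicate averages, with the logarithm in base 2.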

| Variant | polymerase ribozyme fitness (log ratio) |
| --- | --- |
| GGAUCUUCUCGAUCUAACAAAAAAGACAAAUCUGCCACAAAGCUUGAGAGCAUCUUCGGAUGCAGAGGCGGCAGCCUUCGGUGGCGCGAUAGCGCCAACGUUCUCAACUAUGACACGUAGAACGCGUGCUCCGUUGAAUGGACUUUAUCAUG | -2.13 |
| GGAUCUUCUCGAUCUAACAAAAAAGACAAAUCUGCCACAAAGCUUGAGAGCAUCUUCGGAUGCAGAGGCGGCAGCCUUCGGUGGCGCGAUAGCGCCAACGUUCUCAACUAUGACACGCUAAACGCGUGCUCCGUUGAACGGAGUUUAUCAUG | -3.94 |
| GGAUCUUCUCGAUCUAACAAAAAAGACAAAUCUGCCACAAAGCUUGAGAGCAUCUUCGGAUGCAGAGGCGGCAGCCUUCGGUGGCGCGAUAGCGCCAACGUUCUCAACUAUGACACGUAAAACGCGUGCUCCGUUGAAUGGGGUUUACCAUG | -2.86 |
| GGAUCUUCUCGAUCUAACAAAAAAGACAAAUCUGCCACAAAGCUUGAGAGCAUCUUCGGAUGCAGAGGCGGCAGCCUUCGGUGGCGCGAUAGCGCCAACGUUCUCAACUAUGACACGCUAGACGCGUGCUCCGUCGAAUGGAGUUAAUCGUG | -3.77 |
| GGAUCUUCUCGAUCUAACAAAAAAGACAAAUCUGCCACAAAGCUUGAGAGCAUCUUCGGAUGCAGAGGCGGCAGCCUUCGGUGGCGCGAUAGCGCCAACGUUCUCAACUAUGACACGCAAAACCCGUGCUCCGUUGAAUGGAUUUUAUCAUG | -3.2 |
| GGAUCUUCUCGAUCUAACAAAAAAGACAAAUCUGCCACAAAGCUUGAGAGCAUCUUCGGAUGCAGAGGCGGCAGCCUUCGGUGGCGCGAUAGCGCCAACGUUCUCAACUAUGACACGCACAACGCGUGCUCCGUUGAAUGCAGUUUAUCAUG | -0.144 |
| GGAUCUUCUCGAUCUAACAAAAAAGACAAAUCUGCCACAAAGCUUGAGAGCAUCUUCGGAUGCAGAGGCGGCAGCCUUCGGUGGCGCGAUAGCGCCAACGUUCUCAACUAUGACACGCAAAACGAGUGCUCCGCUGAAUGGAGUUUAACAUA | -4.13 |
| GGAUCUUCUCGAUCUAACAAAAAAGACAAAUCUGCCACAAAGCUUGAGAGCAUCUUCGGAUGCAGAGGCGGCAGCCUUCGGUGGCGCGAUAGCGCCAACGUUCUCAACUAUGACACGCAAAACUCGUGCUCCGUUGAAUAGAGUUUAUCAUG | -4 |
| GGAUCUUCUCGAUCUAACAAAAAAGACAAAUCUGCCACAAAGCUUGAGAGCAUCUUCGGAUGCAGAGGCGGCAGCCUUCGGUGGCGCGAUAGCGCCAACGUUCUCAACUAUGACACGCUAAACGCAUGCUCCGUCGAAUGCAGUUUAUCAUG | -3.75 |
| GGAUCUUCUCGAUCUAACAAAAAAGACAAAUCUGCCACAAAGCUUGAGAGCAUCUUCGGAUGCAGAGGCGGCAGCCUUCGGUGGCGCGAUAGCGCCAACGUUCUCAACUAUGACACGCAAAGCGCGUGCUCCGUUGAAUGGAAUUUAUCAUG | -1.03 |
| GGAUCUUCUCGAUCUAACAAAAAAGACAAAUCUGCCACAAAGCUUGAGAGCAUCUUCGGAUGCAGAGGCGGCAGCCUUCGGUGGCGCGAUAGCGCCAACGUUCUCAACUAUGACACGCAAAACUCGUGCUCCGGUGAAUGGAGUUUAUCAUG | -2.98 |
| GGAUCUUCUCGAUCUAACAAAAAAGACAAAUCUGCCACAAAGCUUGAGAGCAUCUUCGGAUGCAGAGGCGGCAGCCUUCGGUGGCGCGAUAGCGCCAACGUUCUCAACUAUGACACGCUAAACGCGUGCUCCGUUGAAUUGAGUUUAUCAUG | -3.25 |
| GGAUCUUCUCGAUCUAACAAAAAAGACAAAUCUGCCACAAAGCUUGAGAGCAUCUUCGGAUGCAGAGGCGGCAGCCUUCGGUGGCGCGAUAGCGCCAACGUUCUCAACUAUGACACGCAAGACGCGUGCUCCGUAGAAUGGAGUUUAUCAUG | -0.777 |
| GGAUCUUCUCGAUCUAACAAAAAAGACAAAUCUGCCACAAAGCUUGAGAGCAUCUUCGGAUGCAGAGGCGGCAGCCUUCGGUGGCGCGAUAGCGCCAACGUUCUCAACUAUGACACGCGAAACGAGUGCUCCGUUGAAUGGAGUUUAUCAUG | 0.204 |
| GGAUCUUCUCGAUCUAACAAAAAAGACAAAUCUGCCACAAAGCUUGAGAGCAUCUUCGGAUGCAGAGGCGGCAGCCUUCGGUGGCGCGAUAGCGCCAACGUUCUCAACUAUGACACGCUAAACGCAUGCUCCGUUGAAUGGAGUUUAUCAUG | 0.174 |
| GGAUCUUCUCGAUCUAACAAAAAAGACAAAUCUGCCACAAAGCUUGAGAGCAUCUUCGGAUGCAGAGGCGGCAGCCUUCGGUGGCGCGAUAGCGCCAACGUUCUCAACUAUGACACGCUAAACGCGUGCUCCGAUGAAUGGAGUUUAUCAUG | -2.99 |
| GGAUCUUCUCGAUCUAACAAAAAAGACAAAUCUGCCACAAAGCUUGAGAGCAUCUUCGGAUGCAGAGGCGGCAGCCUUCGGUGGCGCGAUAGCGCCAACGUUCUCAACUAUGACACGCAAGCCGCGUGCUCCGUUGCAUGGAGUUUAUCAUG | -4.06 |
| GGAUCUUCUCGAUCUAACAAAAAAGACAAAUCUGCCACAAAGCUUGAGAGCAUCUUCGGAUGCAGAGGCGGCAGCCUUCGGUGGCGCGAUAGCGCCAACGUUCUCAACUAUGACACGCAAGACGCGUGCUCCGUUGAAUGGAAUUUUUCAUG | -1.46 |
| GGAUCUUCUCGAUCUAACAAAAAAGACAAAUCUGCCACAAAGCUUGAGAGCAUCUUCGGAUGCAGAGGCGGCAGCCUUCGGUGGCGCGAUAGCGCCAACGUUCUCAACUAUGACACGCAAAAAGCGUGCUCGGUUGAAUGGAGUUUAUCAUG | -3.17 |

From the RNAGym collection of RNA variant scans (doi:10.1073/pnas.2313332121)
